This assay deals with recombinant WU2 (r)PspA possessing only αHD and PRD (Streptococcus pneumoniae serotype 3 strain WU2). Kind of assay: SPR.

In the case of “recombinant lactoferrin (LF) (from UniProt P02788 20-710) (natural protein)”, the Kd is 3.89 nM.

These data come from paper PMC10557681.
